This passage reports fold Grb2 co-IP'ed with Axl, rhGas6 stimulation against no stimulation results from paper PMC2905062.

The experiment addresses Axl receptor tyrosine kinase, wildtype (human). Briefly: co-IP.

The substance “endogenous growth factor receptor-bound protein 2 (Grb2) of COS7 cells (natural protein)” returned a fold Grb2 co-IP'ed with Axl, rhGas6 stimulation against no stimulation of 2 fold.
